Reference: patent US20230241187A1

Columns and labels:
insulin receptor (IR) [1] = assay: competition ELISA, plate-bound Insulin-R, 20 nM insulin-biotin, competitor 62.5 nM, average
insulin receptor (IR) [2] = assay: competition ELISA, plate-bound Insulin-R, 20 nM insulin-biotin, competitor 250 nM, average
insulin receptor (IR) [3] = assay: competition ELISA, plate-bound Insulin-R, 20 nM insulin-biotin, competitor 7.8125 nM, replicate 2
insulin receptor (IR) [4] = assay: competition ELISA, plate-bound Insulin-R, 20 nM insulin-biotin, competitor 31.25 nM, replicate 1
insulin receptor (IR) [5] = assay: competition ELISA, plate-bound Insulin-R, 20 nM insulin-biotin, competitor 250 nM, replicate 2
insulin receptor (IR) [6] = assay: competition ELISA, plate-bound Insulin-R, 20 nM insulin-biotin, competitor 62.5 nM, replicate 2
insulin receptor (IR) [7] = assay: competition ELISA, plate-bound Insulin-R, 20 nM insulin-biotin, competitor 1.95313 nM, average
insulin receptor (IR) [8] = assay: competition ELISA, plate-bound Insulin-R, 20 nM insulin-biotin, competitor 62.5 nM, replicate 1
insulin receptor (IR) [9] = assay: competition ELISA, plate-bound Insulin-R, 20 nM insulin-biotin, competitor 1.95313 nM, replicate 1
insulin receptor (IR) [10] = assay: competition ELISA, plate-bound Insulin-R, 20 nM insulin-biotin, competitor 15.625 nM, replicate 1
insulin receptor (IR) [11] = assay: competition ELISA, plate-bound Insulin-R, 20 nM insulin-biotin, competitor 3.90625 nM, average
insulin receptor (IR) [12] = assay: competition ELISA, plate-bound Insulin-R, 20 nM insulin-biotin, competitor 15.625 nM, average
insulin receptor (IR) [13] = assay: competition ELISA, plate-bound Insulin-R, 20 nM insulin-biotin, competitor 1000 nM, replicate 1
insulin receptor (IR) [14] = assay: competition ELISA, plate-bound Insulin-R, 20 nM insulin-biotin, competitor 7.8125 nM, replicate 1
insulin receptor (IR) [15] = assay: competition ELISA, plate-bound Insulin-R, 20 nM insulin-biotin, competitor 250 nM, replicate 1
insulin receptor (IR) [16] = assay: competition ELISA, plate-bound Insulin-R, 20 nM insulin-biotin, competitor 7.8125 nM, average
insulin receptor (IR) [17] = assay: competition ELISA, plate-bound Insulin-R, 20 nM insulin-biotin, competitor […], average
insulin receptor (IR) [18] = assay: competition ELISA, plate-bound Insulin-R, 20 nM insulin-biotin, competitor 1.95313 nM, replicate 2
insulin receptor (IR) [19] = assay: competition ELISA, plate-bound Insulin-R, 20 nM insulin-biotin, competitor […], replicate 2
insulin receptor (IR) [20] = assay: competition ELISA, plate-bound Insulin-R, 20 nM insulin-biotin, competitor 1000 nM, average
insulin receptor (IR) [21] = assay: competition ELISA, plate-bound Insulin-R, 20 nM insulin-biotin, competitor 500 nM, average
insulin receptor (IR) [22] = assay: competition ELISA, plate-bound Insulin-R, 20 nM insulin-biotin, competitor 1000 nM, replicate 2
insulin receptor (IR) [23] = assay: competition ELISA, plate-bound Insulin-R, 20 nM insulin-biotin, competitor 500 nM, replicate 1
insulin receptor (IR) [24] = assay: competition ELISA, plate-bound Insulin-R, 20 nM insulin-biotin, competitor 2000 nM, replicate 2
insulin receptor (IR) [25] = assay: competition ELISA, plate-bound Insulin-R, 20 nM insulin-biotin, competitor […], replicate 1
insulin receptor (IR) [26] = assay: competition ELISA, plate-bound Insulin-R, 20 nM insulin-biotin, competitor 15.625 nM, replicate 2
insulin receptor (IR) [27] = assay: competition ELISA, plate-bound Insulin-R, 20 nM insulin-biotin, competitor 2000 nM, replicate 1
insulin receptor (IR) [28] = assay: competition ELISA, plate-bound Insulin-R, 20 nM insulin-biotin, competitor 3.90625 nM, replicate 1
insulin receptor (IR) [29] = assay: competition ELISA, plate-bound Insulin-R, 20 nM insulin-biotin, competitor 31.25 nM, average
insulin receptor (IR) [30] = assay: competition ELISA, plate-bound Insulin-R, 20 nM insulin-biotin, competitor 500 nM, replicate 2
insulin receptor (IR) [31] = assay: competition ELISA, plate-bound Insulin-R, 20 nM insulin-biotin, competitor 3.90625 nM, replicate 2
insulin receptor (IR) [32] = assay: competition ELISA, plate-bound Insulin-R, 20 nM insulin-biotin, competitor 31.25 nM, replicate 2
insulin receptor (IR) [33] = assay: competition ELISA, plate-bound Insulin-R, 20 nM insulin-biotin, competitor 2000 nM, average
insulin receptor (IR) [34] = assay: plate-bound Insulin-R, 20 nM insulin-biotin, 0 nM competitor (Insulin series), replicate 2
insulin receptor (IR) [35] = assay: plate-bound Insulin-R, 20 nM insulin-biotin, 0 nM competitor (ZC701B20 series), average
insulin receptor (IR) [36] = assay: plate-bound Insulin-R, 20 nM insulin-biotin, 0 nM competitor (ZC1487B26 series), replicate 2
insulin receptor (IR) [37] = assay: plate-bound Insulin-R, 20 nM insulin-biotin, 0 nM competitor (Insulin series), replicate 1
insulin receptor (IR) [38] = assay: plate-bound Insulin-R, 20 nM insulin-biotin, 0 nM competitor (ZC701B20 series), replicate 1
insulin receptor (IR) [39] = assay: plate-bound Insulin-R, 20 nM insulin-biotin, 0 nM competitor (ZC1487B26 series), replicate 1
insulin receptor (IR) [40] = assay: plate-bound Insulin-R, 20 nM insulin-biotin, 0 nM competitor (ZC1487B26 series), average
insulin receptor (IR) [41] = assay: plate-bound Insulin-R, 20 nM insulin-biotin, 0 nM competitor (Insulin series), average
insulin receptor (IR) [42] = assay: plate-bound Insulin-R, 20 nM insulin-biotin, 0 nM competitor (IFG-II series), average
insulin receptor (IR) [43] = assay: plate-bound Insulin-R, 20 nM insulin-biotin, 0 nM competitor (ZC701B20 series), replicate 2
insulin receptor (IR) [44] = assay: plate-bound Insulin-R, 20 nM insulin-biotin, 0 nM competitor (IFG-II series), replicate 2
insulin receptor (IR) [45] = assay: plate-bound Insulin-R, 20 nM insulin-biotin, 0 nM competitor (IFG-II series), replicate 1
[46] = molecular target: ConA (ConA-sepharose beads); assay: pull-down on ConA-sepharose beads, GUS activity in flow through

periodate/borohydride modified ß-glucuronidase (enzyme), sequence (P08236 23-651): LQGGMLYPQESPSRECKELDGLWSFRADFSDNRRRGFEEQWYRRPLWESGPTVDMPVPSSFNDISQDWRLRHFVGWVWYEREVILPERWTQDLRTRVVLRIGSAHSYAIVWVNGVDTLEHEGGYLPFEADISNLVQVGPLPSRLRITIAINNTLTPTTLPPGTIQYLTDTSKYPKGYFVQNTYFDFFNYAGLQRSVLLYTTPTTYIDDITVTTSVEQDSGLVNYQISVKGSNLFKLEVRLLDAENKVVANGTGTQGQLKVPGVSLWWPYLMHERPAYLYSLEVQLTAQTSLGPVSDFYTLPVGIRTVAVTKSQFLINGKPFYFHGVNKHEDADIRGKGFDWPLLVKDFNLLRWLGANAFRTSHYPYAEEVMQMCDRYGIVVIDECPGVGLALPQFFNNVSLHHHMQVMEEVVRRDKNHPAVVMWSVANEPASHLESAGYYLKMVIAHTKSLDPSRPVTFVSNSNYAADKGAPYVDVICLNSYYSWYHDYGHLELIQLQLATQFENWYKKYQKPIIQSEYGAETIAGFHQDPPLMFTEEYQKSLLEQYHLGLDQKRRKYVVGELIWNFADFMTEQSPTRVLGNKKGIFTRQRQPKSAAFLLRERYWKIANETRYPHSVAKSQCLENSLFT

Row | Chemiluminescence Intensity (insulin receptor (IR) [1]) | Chemiluminescence Intensity (insulin receptor (IR) [2]) | Chemiluminescence Intensity (insulin receptor (IR) [3]) | Chemiluminescence Intensity (insulin receptor (IR) [4]) | Chemiluminescence Intensity (insulin receptor (IR) [5]) | Chemiluminescence Intensity (insulin receptor (IR) [6]) | Chemiluminescence Intensity (insulin receptor (IR) [7]) | Chemiluminescence Intensity (insulin receptor (IR) [8]) | Chemiluminescence Intensity (insulin receptor (IR) [9]) | Chemiluminescence Intensity (insulin receptor (IR) [10]) | Chemiluminescence Intensity (insulin receptor (IR) [11]) | Chemiluminescence Intensity (insulin receptor (IR) [12]) | Chemiluminescence Intensity (insulin receptor (IR) [13]) | Chemiluminescence Intensity (insulin receptor (IR) [14]) | Chemiluminescence Intensity (insulin receptor (IR) [15]) | Chemiluminescence Intensity (insulin receptor (IR) [16]) | Chemiluminescence Intensity (insulin receptor (IR) [17]) | Chemiluminescence Intensity (insulin receptor (IR) [18]) | Chemiluminescence Intensity (insulin receptor (IR) [19]) | Chemiluminescence Intensity (insulin receptor (IR) [20]) | Substance | also measured
1 | 1110 | 605 | 1480 | 1190 | 566 | 1220 | 1330 | 991 | 1410 | 1490 | 1420 | 1430 | 268 | 1480 | 644 | 1480 | 874 | 1250 | 919 | 222 | IGF-II (wild-type, non-biotinylated control ligand) (from UniProt P01344 25-91) | Chemiluminescence Intensity (insulin receptor (IR) [21]): 368; Chemiluminescence Intensity (insulin receptor (IR) [22]): 176; Chemiluminescence Intensity (insulin receptor (IR) [23]): 356; Chemiluminescence Intensity (insulin receptor (IR) [24]): 140; Chemiluminescence Intensity (insulin receptor (IR) [25]): 828; Chemiluminescence Intensity (insulin receptor (IR) [26]): 1380; Chemiluminescence Intensity (insulin receptor (IR) [27]): 70; Chemiluminescence Intensity (insulin receptor (IR) [28]): 1480; Chemiluminescence Intensity (insulin receptor (IR) [29]): 1320; Chemiluminescence Intensity (insulin receptor (IR) [30]): 379; Chemiluminescence Intensity (insulin receptor (IR) [31]): 1370; Chemiluminescence Intensity (insulin receptor (IR) [32]): 1450; Chemiluminescence Intensity (insulin receptor (IR) [33]): 105
2 | 498 | 122 | 1000 | 750 | 141 | 517 | 1250 | 479 | 1050 | 780 | 1260 | 832 | 43 | 503 | 102 | 753 | 236 | 1460 | 229 | 34 | Insulin (non-biotinylated control) (from UniProt P01308 25-54; P01308 90-110) (ligand) | Chemiluminescence Intensity (insulin receptor (IR) [21]): 61.5; Chemiluminescence Intensity (insulin receptor (IR) [22]): 25; Chemiluminescence Intensity (insulin receptor (IR) [23]): 66; Chemiluminescence Intensity (insulin receptor (IR) [24]): 13; Chemiluminescence Intensity (insulin receptor (IR) [25]): 243; Chemiluminescence Intensity (insulin receptor (IR) [26]): 885; Chemiluminescence Intensity (insulin receptor (IR) [27]): 38; Chemiluminescence Intensity (insulin receptor (IR) [28]): 1180; Chemiluminescence Intensity (insulin receptor (IR) [29]): 634; Chemiluminescence Intensity (insulin receptor (IR) [30]): 57; Chemiluminescence Intensity (insulin receptor (IR) [31]): 1340; Chemiluminescence Intensity (insulin receptor (IR) [32]): 517; Chemiluminescence Intensity (insulin receptor (IR) [33]): 25.5
3 |  |  |  |  |  |  |  |  |  |  |  |  |  |  |  |  |  |  |  |  | Insulin-biotin (biotinylated insulin) (from UniProt P01308 25-54; P01308 90-110) (ligand) | Chemiluminescence Intensity (insulin receptor (IR) [34]): 1690; Chemiluminescence Intensity (insulin receptor (IR) [35]): 1840; Chemiluminescence Intensity (insulin receptor (IR) [36]): 2070; Chemiluminescence Intensity (insulin receptor (IR) [37]): 2180; Chemiluminescence Intensity (insulin receptor (IR) [38]): 1790; Chemiluminescence Intensity (insulin receptor (IR) [39]): 1950; Chemiluminescence Intensity (insulin receptor (IR) [40]): 2010; Chemiluminescence Intensity (insulin receptor (IR) [41]): 1940; Chemiluminescence Intensity (insulin receptor (IR) [42]): 1920; Chemiluminescence Intensity (insulin receptor (IR) [43]): 1890; Chemiluminescence Intensity (insulin receptor (IR) [44]): 1960; Chemiluminescence Intensity (insulin receptor (IR) [45]): 1870
4 |  |  |  |  |  |  |  |  |  |  |  |  |  |  |  |  |  |  |  |  | periodate/borohydride modified ß-glucuronidase (enzyme) | ConA binding activity lost [46]: 60%
